Reference: patent US20240288446A1 (H PITAUX UNIVERSITAIRES DE STRASBOURG, published 2024)

Target: T1, α1-proteinase inhibitor (human, UniProt P01009 25-418)
T1 construct: also called α1-PI; α1PI
Test: ELISA of HNE-α1-PI complexes in human plasma

T1 sequence (P01009 25-418 limits assumed): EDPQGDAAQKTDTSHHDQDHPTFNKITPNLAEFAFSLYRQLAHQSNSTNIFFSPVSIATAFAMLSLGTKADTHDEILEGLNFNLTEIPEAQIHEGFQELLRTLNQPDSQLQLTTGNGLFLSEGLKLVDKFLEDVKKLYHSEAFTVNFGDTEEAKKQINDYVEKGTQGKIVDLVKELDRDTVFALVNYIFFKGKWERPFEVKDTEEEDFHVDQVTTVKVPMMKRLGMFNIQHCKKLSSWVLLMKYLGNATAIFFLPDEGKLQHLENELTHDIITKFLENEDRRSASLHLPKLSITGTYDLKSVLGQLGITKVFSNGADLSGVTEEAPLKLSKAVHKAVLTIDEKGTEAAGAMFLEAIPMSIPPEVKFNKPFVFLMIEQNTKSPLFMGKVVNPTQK

B1: Human neutrophil elastase (enzyme, UniProt P08246 30-247, looked up)
chain: IVGGRRARPHAWPFMVSLQLRGGHFCGATLIAPNFVMSAAHCVANVNVRAVRVVLGAHNLSRREPTRQVFAVQRIFENGYDPVNLLNDIVILQLNGSATINANVQVAQLPAQGRRLGNGVQCLAMGWGLLGRNRGIASVLQELNVTVVTSLCRRSNVCTLVRGRQAGVCFGDSGSPLVCNGLIHGIASFVRGGCASGLYPDAFAPVAQFVNWIDSIIQ
notes: Tested free (purified, in supernatants or in plasma) and as an HNE-DNA complex on NETs; also called HNE; leukocyte elastase
- binding result: binds
